Laboratory results published in publication PMC3384336 (Nucleic Acids Research, 2012).

B1: RNA polymerase I subunit A34.5 (natural protein)
chain: MSKLSKDYVSDSDSDDEVISNEFSIPDGFKKCKHLKNFPLNGDNKKKAKQQQVWLIKFPSNVDISKLKSLPVDFESSTTMTIDKHDYKIMDDTDIESSLTQDNLSNMTLLVPSESKESLKIASTAKDNAPLQFDKVFSVSETAKIPAIDYSKVRVPRKDVPKVEGLKLEHFATGYDAEDFHVAEEVKENKKEPKKRSHHDDEEESSEKKKKKKEKREKREKKDKKDKKKKHRD
B2: RNA polymerase I subunit A49 (natural protein)
chain: MSVKRSVSEIEIESVQDQPSVAVGSFFKGFRAPSDTTFDLYKKKKSEKDEFVLHGENERLEYEGYTDSSSQASNQYVVGLFNPEKKSIQLYKAPVLVSKVVSKSSKNLRGPKIKSKSDTRPSALRNALGEAFGTKKAKKAIADLERNRIDSDKLTDSAIDIVDSVRTASKDLPTRAQLDEITSNDRPTPLANIDATDVEQIYPIESIIPKKELQFIRVSSILKEADKEKKLELFPYQNNSKYVAKKLDSLTQPSQMTKLQLLYYLSLLLGVYENRRVNNKTKLLERLNSPPEILVDGILSRFTVIKPGQFGRSKDRSYFIDPQNEDKILCYILAIIMHLDNFIVEITPLAHELNLKPSKVVSLFRVLGAIVKGATVAQAEAFGIPKSTAASYKIATMKVPFKLPEMTRRGRGPRR

Legend:
Assay in all cases: cross-linking
[1] = biological target: B2
[2] = biological target: T1, RNA polymerase I subunit A135 (Saccharomyces cerevisiae, UniProt P22138 1-1203)
T1 sequence: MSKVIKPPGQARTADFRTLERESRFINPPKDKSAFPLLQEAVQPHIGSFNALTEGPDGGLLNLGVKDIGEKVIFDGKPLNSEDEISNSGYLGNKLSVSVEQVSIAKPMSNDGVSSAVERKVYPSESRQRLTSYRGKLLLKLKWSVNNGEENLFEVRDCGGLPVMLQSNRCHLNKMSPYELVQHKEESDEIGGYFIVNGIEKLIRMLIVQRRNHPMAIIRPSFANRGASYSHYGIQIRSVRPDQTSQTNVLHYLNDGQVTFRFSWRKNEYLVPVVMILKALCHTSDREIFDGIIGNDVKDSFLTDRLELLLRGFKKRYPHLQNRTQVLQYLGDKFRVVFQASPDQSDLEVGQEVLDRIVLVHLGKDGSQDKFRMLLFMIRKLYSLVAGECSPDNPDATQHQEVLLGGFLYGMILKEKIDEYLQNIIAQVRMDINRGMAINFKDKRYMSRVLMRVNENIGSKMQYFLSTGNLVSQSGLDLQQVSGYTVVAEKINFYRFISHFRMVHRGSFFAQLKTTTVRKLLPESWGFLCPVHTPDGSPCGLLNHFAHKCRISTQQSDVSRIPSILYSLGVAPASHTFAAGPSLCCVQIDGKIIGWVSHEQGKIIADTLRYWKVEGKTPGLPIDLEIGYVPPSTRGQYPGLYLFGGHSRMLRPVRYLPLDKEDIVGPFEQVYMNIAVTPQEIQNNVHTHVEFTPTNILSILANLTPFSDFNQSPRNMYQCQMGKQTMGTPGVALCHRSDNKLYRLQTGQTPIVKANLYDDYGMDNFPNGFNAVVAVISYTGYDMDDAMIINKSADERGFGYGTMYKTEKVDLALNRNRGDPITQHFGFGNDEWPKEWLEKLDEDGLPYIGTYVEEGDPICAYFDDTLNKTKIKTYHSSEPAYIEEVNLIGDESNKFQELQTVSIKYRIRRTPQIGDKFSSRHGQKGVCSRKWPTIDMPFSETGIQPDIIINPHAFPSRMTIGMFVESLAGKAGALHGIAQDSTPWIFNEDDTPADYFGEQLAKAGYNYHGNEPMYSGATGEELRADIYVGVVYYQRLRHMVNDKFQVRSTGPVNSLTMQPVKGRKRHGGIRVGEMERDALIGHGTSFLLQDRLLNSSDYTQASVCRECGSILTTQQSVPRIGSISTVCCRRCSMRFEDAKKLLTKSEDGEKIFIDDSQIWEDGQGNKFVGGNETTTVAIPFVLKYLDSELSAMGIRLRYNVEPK

[3] = biological target: T2, RNA polymerase I subunit AC40 (Saccharomyces cerevisiae, UniProt P07703 1-335)
T2 sequence: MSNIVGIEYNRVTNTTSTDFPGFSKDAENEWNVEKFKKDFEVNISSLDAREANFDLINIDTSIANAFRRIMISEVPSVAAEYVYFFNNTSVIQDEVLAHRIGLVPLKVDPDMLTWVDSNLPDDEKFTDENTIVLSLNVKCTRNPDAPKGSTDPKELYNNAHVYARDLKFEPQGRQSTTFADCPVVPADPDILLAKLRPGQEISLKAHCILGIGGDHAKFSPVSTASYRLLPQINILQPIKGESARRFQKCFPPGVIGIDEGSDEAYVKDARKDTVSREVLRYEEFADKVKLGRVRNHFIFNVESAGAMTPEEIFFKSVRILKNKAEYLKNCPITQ

[4] = biological target: RNA polymerase I subunit A190 (Saccharomyces cerevisiae, UniProt P10964 1-1664)
Sequence of RNA polymerase I subunit A190 (P10964 whole entry): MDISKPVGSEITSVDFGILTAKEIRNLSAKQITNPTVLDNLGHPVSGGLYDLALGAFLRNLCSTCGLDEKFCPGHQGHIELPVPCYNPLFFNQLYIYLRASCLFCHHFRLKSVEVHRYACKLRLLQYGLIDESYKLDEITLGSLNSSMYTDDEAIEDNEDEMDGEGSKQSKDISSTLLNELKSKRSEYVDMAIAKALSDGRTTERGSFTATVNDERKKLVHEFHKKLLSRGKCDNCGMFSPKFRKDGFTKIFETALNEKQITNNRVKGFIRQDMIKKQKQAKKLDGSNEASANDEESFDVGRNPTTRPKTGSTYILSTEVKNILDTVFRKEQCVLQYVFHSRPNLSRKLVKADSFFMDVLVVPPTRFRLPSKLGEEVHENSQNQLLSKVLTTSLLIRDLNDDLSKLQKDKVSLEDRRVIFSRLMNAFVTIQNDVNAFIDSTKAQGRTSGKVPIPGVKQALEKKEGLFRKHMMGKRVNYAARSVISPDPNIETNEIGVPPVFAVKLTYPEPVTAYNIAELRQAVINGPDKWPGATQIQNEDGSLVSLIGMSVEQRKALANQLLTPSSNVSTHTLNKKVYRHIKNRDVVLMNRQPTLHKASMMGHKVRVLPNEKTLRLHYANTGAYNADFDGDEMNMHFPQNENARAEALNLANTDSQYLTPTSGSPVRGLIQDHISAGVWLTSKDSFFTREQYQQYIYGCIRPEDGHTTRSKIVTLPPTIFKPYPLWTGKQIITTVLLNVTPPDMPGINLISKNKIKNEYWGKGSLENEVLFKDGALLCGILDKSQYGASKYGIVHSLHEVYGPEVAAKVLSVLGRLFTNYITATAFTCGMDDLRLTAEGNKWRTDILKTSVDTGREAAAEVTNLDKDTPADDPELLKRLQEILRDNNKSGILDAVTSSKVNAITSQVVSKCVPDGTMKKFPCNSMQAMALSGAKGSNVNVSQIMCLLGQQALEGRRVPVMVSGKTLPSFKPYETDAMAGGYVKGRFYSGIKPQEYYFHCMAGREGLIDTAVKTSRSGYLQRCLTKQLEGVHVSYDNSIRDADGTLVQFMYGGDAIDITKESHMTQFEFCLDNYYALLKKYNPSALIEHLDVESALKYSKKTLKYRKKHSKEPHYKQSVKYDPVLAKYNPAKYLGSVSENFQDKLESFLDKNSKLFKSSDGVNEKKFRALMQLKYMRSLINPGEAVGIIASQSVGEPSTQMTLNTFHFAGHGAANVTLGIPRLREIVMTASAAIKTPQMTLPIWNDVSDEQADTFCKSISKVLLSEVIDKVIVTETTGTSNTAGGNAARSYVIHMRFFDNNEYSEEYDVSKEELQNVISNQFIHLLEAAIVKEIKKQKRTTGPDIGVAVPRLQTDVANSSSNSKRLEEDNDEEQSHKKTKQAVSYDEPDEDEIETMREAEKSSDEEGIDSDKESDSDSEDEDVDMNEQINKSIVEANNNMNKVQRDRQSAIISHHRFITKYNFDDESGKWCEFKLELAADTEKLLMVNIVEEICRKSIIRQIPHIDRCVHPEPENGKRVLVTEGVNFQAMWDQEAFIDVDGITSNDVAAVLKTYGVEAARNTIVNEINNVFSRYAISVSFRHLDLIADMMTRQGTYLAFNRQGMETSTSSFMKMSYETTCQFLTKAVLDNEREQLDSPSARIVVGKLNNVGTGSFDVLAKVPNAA

[5] = biological target: B1

Binder | binding result [1] | binding result [2] | binding result [4] | also measured
RNA polymerase subunit Rpb5 (natural protein) MDQENERNISRLWRAFRTVKEMVKDRGYFITQEEVELPLEDFKAKYCDSMGRPQRKMMSFQANPTEESISKFPDMGSLWVEFCDEPSVGVKTMKTFVIHIQEKNFQTGIFVYQNNITPSAMKLVPSIPPATIETFNEAALVVNITHHELVPKHIRLSSDEKRELLKRYRLKESQLPRIQRADPVALYLGLKRGEVVKIIRKSETSGRYASYRICM | binds |  |  | 
B1 | binds | binds |  | binding result [3]: binds
B2 |  | binds | binds | 
RNA polymerase I subunit A12.2 (natural protein) MSVVGSLIFCLDCGDLLENPNAVLGSNVECSQCKAIYPKSQFSNLKVVTTTADDAFPSSLRAKKSVVKTSLKKNELKDGATIKEKCPQCGNEEMNYHTLQLRSADEGATVFYTCTSCGYKFRTNN |  | binds | binds | 
RNA polymerase I subunit AC19 (natural protein) MTEDIEQKKTATEVTPQEPKHIQEEEEQDVDMTGDEEQEEEPDREKIKLLTQATSEDGTSASFQIVEEDHTLGNALRYVIMKNPDVEFCGYSIPHPSENLLNIRIQTYGETTAVDALQKGLKDLMDLCDVVESKFTEKIKSM |  |  |  | binding result [5]: binds
RNA polymerase I subunit A43 (natural protein) MSQVKRANENRETARFIKKHKKQVTNPIDEKNGTSNCIVRVPIALYVSLAPMYLENPLQGVMKQHLNPLVMKYNNKVGGVVLGYEGLKILDADPLSKEDTSEKLIKITPDTPFGFTWCHVNLYVWQPQVGDVLEGYIFIQSASHIGLLIHDAFNASIKKNNIPVDWTFVHNDVEEDADVINTDENNGNNNNEDNKDSNGGSNSLGKFSFGNRSLGHWVDSNGEPIDGKLRFTVRNVHTTGRVVSVDGTLISDADEEGNGYNSSRSQAESLPIVSNKKIVFDDEVSIENKESHKELDLPEVKEDNGSEIVYEENTSESNDGESSDSD | binds |  |  | 
